Laboratory results taken from US20020058247A1 (TRIPEP, published 2002).

Each binder was assayed against T1, Full length recombinant HBcAg (rHBcAg) encompassing residues 1-183 (hepatitis B virus, UniProt P03146 1-183) (assay: EIA, support-bound peptide, HBcAg 2 ug/well).
T1 construct: range 1-183; also called hepatitis B virus core antigen
T1 sequence (P03146 whole entry, the tested form may be a part): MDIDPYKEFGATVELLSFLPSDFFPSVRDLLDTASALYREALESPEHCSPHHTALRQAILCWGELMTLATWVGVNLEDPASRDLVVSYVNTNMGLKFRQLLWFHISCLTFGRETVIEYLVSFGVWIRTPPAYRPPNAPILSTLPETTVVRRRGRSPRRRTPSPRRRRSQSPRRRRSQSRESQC

Row | Binder | OD at 405 nm [OD]
1 | GKSLEWIGNINPYYGSTSYN (also called Peptide # 28) [GKSLEWIGNINPYYGSTSYN (SEQ. ID. No. 31)] | 0.289
2 | VDKSSSTAYMELTRLTSEDS (also called Peptide # 8) [VDKSSSTAYMELTRLTSEDS (SEQ. ID. No. 11)] | 0.363
3 | KRADAAPAVSIFPPSSKLG (also called Peptide # 23) [KRADAAPAVSIFPPSSKLG (SEQ. ID. No. 26)] | 0.465
4 | NPYYGSTSYNQKFKGKATLT (also called Peptide # 29) [NPYYGSTSYNQKFKGKATLT (SEQ. ID. No. 32)] | 0.783
5 | LIKYASNLESGVPARFSGSG [LIKYASNLESGVPARFSGSG (SEQ. ID. No. 20)] | 0.357
6 | GVPARFSGSGSGTDFTLNIH [GVPARFSGSGSGTDFTLNIH (SEQ. ID. No. 21)] | 0.409
7 | PVEEEDTATYYCQHSWEIPY (also called Peptide # 20) [PVEEEDTATYYCQHSWEIPY (SEQ. ID. No. 23)] | 0.625
8 | TFGGGTKLEIKRADAAPAV (also called Peptide # 22) [TFGGGTKLEIKRADAAPAV (SEQ. ID. No. 25)] | 0.273
9 | YCQHSWEIPYTFGGGTKLEI (also called Peptide # 21) [YCQHSWEIPYTFGGGTKLEI (SEQ. ID. No. 24)] | 0.498
10 | VKLQQSGTEVVKPGASVKLS (also called Peptide # 1) [VKLQQSGTEVVKPGASVKLS (SEQ. ID. No. 4)] | 0.323
11 | FPGEGSTEYNEKFKGRATLS (also called Peptide # 6) [FPGEGSTEYNEKFKGRATLS (SEQ. ID. No. 9)] | 0.325
12 | DYYRRYFDLWGQGTTVTVS (also called Peptide # 11) [DYYRRYFDLWGQGTTVTVS (SEQ. ID. No. 14)] | 0.356
13 | VDKSSSTAYMQLNSLTSEDS (also called Peptide # 31) [VDKSSSTAYMQLNSLTSEDS (SEQ. ID. No. 34)] | 0.338
14 | TGFAYWGQGTLVTVSAAKTT (also called Peptide # 34) [TGFAYWGQGTLVTVSAAKTT (SEQ. ID. No. 37)] | 0.898
15 | EQGLEWIGWIFPGEGSTEYN (also called Peptide # 5) [EQGLEWIGWIFPGEGSTEYN (SEQ. ID. No. 8)] | 0.706
16 | TSSYSYMHWYQQKPGQPPKL [TSSYSYMHWYQQKPGQPPKL (SEQ. ID. No. 18)] | 1.44
17 | IQLQQSGAELVKPGASVKIS (also called Peptide # 24) [IQLQQSGAELVKPGASVKIS (SEQ. ID. No. 27)] | 0.369
18 | AVYFCARGDYDYYRRYFDLW (also called Peptide # 10) [AVYFCARGDYDYYRRYFDLW (SEQ. ID. No. 13)] | 0.981
19 | AVYYCARGKGTGFAYWGQGT (also called Peptide # 33) [AVYYCARGKGTGFAYWGQGT (SEQ. ID. No. 36)] | 1.2
20 | SGTDFTLNIHPVEEEDTATY [SGTDFTLNIHPVEEEDTATY (SEQ. ID. No. 22)] | 0.649
21 | EKFKGRATLSVDKSSSTAYM (also called Peptide # 7) [EKFKGRATLSVDKSSSTAYM (SEQ. ID. No. 10)] | 0.883

These binders were tested against T1, Full length recombinant HBcAg (rHBcAg) … (assay: EIA, support-bound peptide, HBcAg 0.2 ug/well).

Row | Binder | OD at 405 nm [OD]
22 | GKSLEWIGNINPYYGSTSYN (also called Peptide # 28) [GKSLEWIGNINPYYGSTSYN (SEQ. ID. No. 31)] | 0.114
23 | VDKSSSTAYMELTRLTSEDS (also called Peptide # 8) [VDKSSSTAYMELTRLTSEDS (SEQ. ID. No. 11)] | 0.134
24 | KRADAAPAVSIFPPSSKLG (also called Peptide # 23) [KRADAAPAVSIFPPSSKLG (SEQ. ID. No. 26)] | 0.162
25 | NPYYGSTSYNQKFKGKATLT (also called Peptide # 29) [NPYYGSTSYNQKFKGKATLT (SEQ. ID. No. 32)] | 0.213
26 | LIKYASNLESGVPARFSGSG [LIKYASNLESGVPARFSGSG (SEQ. ID. No. 20)] | 0.112
27 | GVPARFSGSGSGTDFTLNIH [GVPARFSGSGSGTDFTLNIH (SEQ. ID. No. 21)] | 0.141
28 | PVEEEDTATYYCQHSWEIPY (also called Peptide # 20) [PVEEEDTATYYCQHSWEIPY (SEQ. ID. No. 23)] | 0.207
29 | TFGGGTKLEIKRADAAPAV (also called Peptide # 22) [TFGGGTKLEIKRADAAPAV (SEQ. ID. No. 25)] | 0.084
30 | YCQHSWEIPYTFGGGTKLEI (also called Peptide # 21) [YCQHSWEIPYTFGGGTKLEI (SEQ. ID. No. 24)] | 0.173
31 | VKLQQSGTEVVKPGASVKLS (also called Peptide # 1) [VKLQQSGTEVVKPGASVKLS (SEQ. ID. No. 4)] | 0.124
32 | FPGEGSTEYNEKFKGRATLS (also called Peptide # 6) [FPGEGSTEYNEKFKGRATLS (SEQ. ID. No. 9)] | 0.121
33 | DYYRRYFDLWGQGTTVTVS (also called Peptide # 11) [DYYRRYFDLWGQGTTVTVS (SEQ. ID. No. 14)] | 0.133
34 | VDKSSSTAYMQLNSLTSEDS (also called Peptide # 31) [VDKSSSTAYMQLNSLTSEDS (SEQ. ID. No. 34)] | 0.114
35 | TGFAYWGQGTLVTVSAAKTT (also called Peptide # 34) [TGFAYWGQGTLVTVSAAKTT (SEQ. ID. No. 37)] | 0.192
36 | EQGLEWIGWIFPGEGSTEYN (also called Peptide # 5) [EQGLEWIGWIFPGEGSTEYN (SEQ. ID. No. 8)] | 0.256
37 | TSSYSYMHWYQQKPGQPPKL [TSSYSYMHWYQQKPGQPPKL (SEQ. ID. No. 18)] | 0.574
38 | IQLQQSGAELVKPGASVKIS (also called Peptide # 24) [IQLQQSGAELVKPGASVKIS (SEQ. ID. No. 27)] | 0.123
39 | AVYFCARGDYDYYRRYFDLW (also called Peptide # 10) [AVYFCARGDYDYYRRYFDLW (SEQ. ID. No. 13)] | 0.304
40 | AVYYCARGKGTGFAYWGQGT (also called Peptide # 33) [AVYYCARGKGTGFAYWGQGT (SEQ. ID. No. 36)] | 0.227
41 | SGTDFTLNIHPVEEEDTATY [SGTDFTLNIHPVEEEDTATY (SEQ. ID. No. 22)] | 0.205
42 | EKFKGRATLSVDKSSSTAYM (also called Peptide # 7) [EKFKGRATLSVDKSSSTAYM (SEQ. ID. No. 10)] | 0.194

What follows are binders tested against T2, non-structural 3 protein (NS3) of the hepatitis C virus (HCV) (hepatitis C virus) (assay: EIA, support-bound peptide, HCV NS3 control).
T2 construct: Control antigen; also called HCV NS3

Row | Binder | OD at 405 nm [OD]
43 | GKSLEWIGNINPYYGSTSYN (also called Peptide # 28) [GKSLEWIGNINPYYGSTSYN (SEQ. ID. No. 31)] | 0.028
44 | VDKSSSTAYMELTRLTSEDS (also called Peptide # 8) [VDKSSSTAYMELTRLTSEDS (SEQ. ID. No. 11)] | 0.041
45 | KRADAAPAVSIFPPSSKLG (also called Peptide # 23) [KRADAAPAVSIFPPSSKLG (SEQ. ID. No. 26)] | 0.021
46 | NPYYGSTSYNQKFKGKATLT (also called Peptide # 29) [NPYYGSTSYNQKFKGKATLT (SEQ. ID. No. 32)] | 0.021
47 | LIKYASNLESGVPARFSGSG [LIKYASNLESGVPARFSGSG (SEQ. ID. No. 20)] | 0.02
48 | GVPARFSGSGSGTDFTLNIH [GVPARFSGSGSGTDFTLNIH (SEQ. ID. No. 21)] | 0.027
49 | PVEEEDTATYYCQHSWEIPY (also called Peptide # 20) [PVEEEDTATYYCQHSWEIPY (SEQ. ID. No. 23)] | 0.124
50 | TFGGGTKLEIKRADAAPAV (also called Peptide # 22) [TFGGGTKLEIKRADAAPAV (SEQ. ID. No. 25)] | 0.024
51 | YCQHSWEIPYTFGGGTKLEI (also called Peptide # 21) [YCQHSWEIPYTFGGGTKLEI (SEQ. ID. No. 24)] | 0.052
52 | VKLQQSGTEVVKPGASVKLS (also called Peptide # 1) [VKLQQSGTEVVKPGASVKLS (SEQ. ID. No. 4)] | 0.021
53 | FPGEGSTEYNEKFKGRATLS (also called Peptide # 6) [FPGEGSTEYNEKFKGRATLS (SEQ. ID. No. 9)] | 0.109
54 | DYYRRYFDLWGQGTTVTVS (also called Peptide # 11) [DYYRRYFDLWGQGTTVTVS (SEQ. ID. No. 14)] | 0.022
55 | VDKSSSTAYMQLNSLTSEDS (also called Peptide # 31) [VDKSSSTAYMQLNSLTSEDS (SEQ. ID. No. 34)] | 0.106
56 | TGFAYWGQGTLVTVSAAKTT (also called Peptide # 34) [TGFAYWGQGTLVTVSAAKTT (SEQ. ID. No. 37)] | 0.035
57 | EQGLEWIGWIFPGEGSTEYN (also called Peptide # 5) [EQGLEWIGWIFPGEGSTEYN (SEQ. ID. No. 8)] | 0.182
58 | TSSYSYMHWYQQKPGQPPKL [TSSYSYMHWYQQKPGQPPKL (SEQ. ID. No. 18)] | 0.028
59 | IQLQQSGAELVKPGASVKIS (also called Peptide # 24) [IQLQQSGAELVKPGASVKIS (SEQ. ID. No. 27)] | 0.021
60 | AVYFCARGDYDYYRRYFDLW (also called Peptide # 10) [AVYFCARGDYDYYRRYFDLW (SEQ. ID. No. 13)] | 0.038
61 | AVYYCARGKGTGFAYWGQGT (also called Peptide # 33) [AVYYCARGKGTGFAYWGQGT (SEQ. ID. No. 36)] | 0.035
62 | SGTDFTLNIHPVEEEDTATY [SGTDFTLNIHPVEEEDTATY (SEQ. ID. No. 22)] | 0.206
63 | EKFKGRATLSVDKSSSTAYM (also called Peptide # 7) [EKFKGRATLSVDKSSSTAYM (SEQ. ID. No. 10)] | 0.035
